# Test results as given in paper PMC11024299, “Probing the active site of Class 3 L-asparaginase by mutagenesis. I. Tinkering with the zinc coordination site of ReAV” (Frontiers in Chemistry, 2024).
# Assays:
# ReAV = target: T1, ReAV (Rhizobium etli, UniProt Q2K0Z2); experiment: multiple injection isothermal titration calorimetry (ITC-MIM); format: biochemical; settings: 10 mM Tris-HCl pH 9.0, 37 °C, no added Zn2+; WT values cited to the same group's earlier paper (Sliwiak et al., 2024); cited from earlier work
# T1 construct: gene ansA; recombinant from plasmid pET151-D-ReAV in E. coli BL21 Gold (DE3); His-tag cut with TEV protease; homodimer, Zn site C135/K138/C189
# Source text: (§1) multiple injection isothermal titration calorimetry (ITC-MIM) on ReAV
# [1] = substrate: NC(=O)C[C@H](N)C(=O)O; experiment: as above; format: biochemical, Rhizobium etli; settings: 10 mM Tris-HCl pH 9.0, 37 °C, no added Zn2+
# Source text: as §1
# [2] = target: the molecule itself; experiment: crystal structure; vapor diffusion crystals grown at 19°C, protein supplemented with 0.5%-1% DDM; data at 100 K; molecular replacement with WT ReAV (PDB 7os5); homodimer(s) in the asymmetric unit
# T1 sequence (Q2K0Z2 entry or part of it): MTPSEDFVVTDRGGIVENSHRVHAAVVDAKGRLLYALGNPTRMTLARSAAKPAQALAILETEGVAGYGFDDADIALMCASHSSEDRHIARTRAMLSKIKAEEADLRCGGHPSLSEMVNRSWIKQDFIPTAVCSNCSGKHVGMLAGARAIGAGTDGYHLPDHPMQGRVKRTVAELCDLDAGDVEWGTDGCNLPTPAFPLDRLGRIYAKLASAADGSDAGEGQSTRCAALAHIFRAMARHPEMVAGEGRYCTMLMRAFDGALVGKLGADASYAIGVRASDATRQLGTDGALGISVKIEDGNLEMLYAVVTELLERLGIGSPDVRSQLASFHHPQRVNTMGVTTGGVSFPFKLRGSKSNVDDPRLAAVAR
molecule,measurement,setting,value
NC(=O)C[C@H](N)C(=O)O [L-asparagine],Km,ReAV,2700 ± 100 µM
"ReAV H139A (enzyme, Rhizobium etli, Homodimer in the crystal (two dimers per asymmetric unit); also called H139A mutant; Rhizobium etli Class 3 L-asparaginase ReAV H139A mutein; source: E. coli BL21 Gold, purified (HisTrap, TEV digestion, Superdex 200)) MTPSEDFVVTDRGGIVENSHRVHAAVVDAKGRLLYALGNPTRMTLARSAAKPAQALAILETEGVAGYGFDDADIALMCASHSSEDRHIARTRAMLSKIKAEEADLRCGGHPSLSEMVNRSWIKQDFIPTAVCSNCSGKAVGMLAGARAIGAGTDGYHLPDHPMQGRVKRTVAELCDLDAGDVEWGTDGCNLPTPAFPLDRLGRIYAKLASAADGSDAGEGQSTRCAALAHIFRAMARHPEMVAGEGRYCTMLMRAFDGALVGKLGADASYAIGVRASDATRQLGTDGALGISVKIEDGNLEMLYAVVTELLERLGIGSPDVRSQLASFHHPQRVNTMGVTTGGVSFPFKLRGSKSNVDDPRLAAVAR",Km,[1],5600 ± 200 µM
same,kcat,[1],445 ± 20 s⁻¹
same,kcat/Km,[1],80000 ± 1000 M⁻¹ s⁻¹
same,binding result,[2],binds
"ReAV C135A (enzyme, Rhizobium etli, Homodimer in the crystal (one dimer per asymmetric unit); also called C135A mutant; Rhizobium etli Class 3 L-asparaginase ReAV C135A mutein; source: E. coli BL21 Gold, purified (HisTrap, TEV digestion, Superdex 200)) MTPSEDFVVTDRGGIVENSHRVHAAVVDAKGRLLYALGNPTRMTLARSAAKPAQALAILETEGVAGYGFDDADIALMCASHSSEDRHIARTRAMLSKIKAEEADLRCGGHPSLSEMVNRSWIKQDFIPTAVCSNASGKHVGMLAGARAIGAGTDGYHLPDHPMQGRVKRTVAELCDLDAGDVEWGTDGCNLPTPAFPLDRLGRIYAKLASAADGSDAGEGQSTRCAALAHIFRAMARHPEMVAGEGRYCTMLMRAFDGALVGKLGADASYAIGVRASDATRQLGTDGALGISVKIEDGNLEMLYAVVTELLERLGIGSPDVRSQLASFHHPQRVNTMGVTTGGVSFPFKLRGSKSNVDDPRLAAVAR",binding result,[2],binds
"ReAV D187A (enzyme, Rhizobium etli, Homodimer in the crystal (two dimers per asymmetric unit); also called D187A mutant; Rhizobium etli Class 3 L-asparaginase ReAV D187A mutein; source: E. coli BL21 Gold, purified (HisTrap, TEV digestion, Superdex 200)) MTPSEDFVVTDRGGIVENSHRVHAAVVDAKGRLLYALGNPTRMTLARSAAKPAQALAILETEGVAGYGFDDADIALMCASHSSEDRHIARTRAMLSKIKAEEADLRCGGHPSLSEMVNRSWIKQDFIPTAVCSNCSGKHVGMLAGARAIGAGTDGYHLPDHPMQGRVKRTVAELCDLDAGDVEWGTAGCNLPTPAFPLDRLGRIYAKLASAADGSDAGEGQSTRCAALAHIFRAMARHPEMVAGEGRYCTMLMRAFDGALVGKLGADASYAIGVRASDATRQLGTDGALGISVKIEDGNLEMLYAVVTELLERLGIGSPDVRSQLASFHHPQRVNTMGVTTGGVSFPFKLRGSKSNVDDPRLAAVAR",binding result,[2],binds
"ReAV C189A (enzyme, Rhizobium etli, Homodimer in the crystal (one dimer per asymmetric unit); also called C189A mutant; Rhizobium etli Class 3 L-asparaginase ReAV C189A mutein; source: E. coli BL21 Gold, purified (HisTrap, TEV digestion, Superdex 200)) MTPSEDFVVTDRGGIVENSHRVHAAVVDAKGRLLYALGNPTRMTLARSAAKPAQALAILETEGVAGYGFDDADIALMCASHSSEDRHIARTRAMLSKIKAEEADLRCGGHPSLSEMVNRSWIKQDFIPTAVCSNCSGKHVGMLAGARAIGAGTDGYHLPDHPMQGRVKRTVAELCDLDAGDVEWGTDGANLPTPAFPLDRLGRIYAKLASAADGSDAGEGQSTRCAALAHIFRAMARHPEMVAGEGRYCTMLMRAFDGALVGKLGADASYAIGVRASDATRQLGTDGALGISVKIEDGNLEMLYAVVTELLERLGIGSPDVRSQLASFHHPQRVNTMGVTTGGVSFPFKLRGSKSNVDDPRLAAVAR",binding result,[2],binds
"ReAV K138A (enzyme, Rhizobium etli, Homodimer in the crystal (two dimers per asymmetric unit); also called K138A mutant; Rhizobium etli Class 3 L-asparaginase ReAV K138A mutein; source: E. coli BL21 Gold, purified (HisTrap, TEV digestion, Superdex 200)) MTPSEDFVVTDRGGIVENSHRVHAAVVDAKGRLLYALGNPTRMTLARSAAKPAQALAILETEGVAGYGFDDADIALMCASHSSEDRHIARTRAMLSKIKAEEADLRCGGHPSLSEMVNRSWIKQDFIPTAVCSNCSGAHVGMLAGARAIGAGTDGYHLPDHPMQGRVKRTVAELCDLDAGDVEWGTDGCNLPTPAFPLDRLGRIYAKLASAADGSDAGEGQSTRCAALAHIFRAMARHPEMVAGEGRYCTMLMRAFDGALVGKLGADASYAIGVRASDATRQLGTDGALGISVKIEDGNLEMLYAVVTELLERLGIGSPDVRSQLASFHHPQRVNTMGVTTGGVSFPFKLRGSKSNVDDPRLAAVAR",binding result,[2],binds
